The text below walks through data of FireProtDB (doi:10.1016/s0022-2836(02)00630-7).

The conditions of the series: Bacillus subtilis (strain 168); pH 7; Thermal; CD; Potassium phosphate 10 mM; reversible: yes; whole UniProt chain shown.

B1: Phosphocarrier protein HPr wild type, P08877 (protein)
chain: MAQKTFKVTADSGIHARPATVLVQTASKYDADVNLEYNGKTVNLKSIMGVMSLGIAKGAEITISASGADENDALNALEETMKSEGLGE
Broadly, the Tm is the temperature at which the thermal transition is half complete. On to B1, for which the Tm was found to be 72.6 °C and the “unfolding enthalpy (van 't Hoff)” value came out at 74.9 kcal/mol.
